Publication PMC4379099 (PLoS Pathogens, 2015)

Experiments:
MAP kinases = type: cell-based, rice
[1] = target: EFR::GFP (full-length Arabidopsis EFR with a carboxyl-terminal GFP fusion, transgenic rice) (Arabidopsis) (UniProt C0LGT6)
[2] = target: T1, EFR::XA21::GFP chimeric receptor (EFR ectodomain 1-649 fused to XA21 651-1025, carboxyl-terminal GFP, transgenic rice) (Arabidopsis | rice (Oryza longistaminata)) (UniProt C0LGT6)
T1 sequence: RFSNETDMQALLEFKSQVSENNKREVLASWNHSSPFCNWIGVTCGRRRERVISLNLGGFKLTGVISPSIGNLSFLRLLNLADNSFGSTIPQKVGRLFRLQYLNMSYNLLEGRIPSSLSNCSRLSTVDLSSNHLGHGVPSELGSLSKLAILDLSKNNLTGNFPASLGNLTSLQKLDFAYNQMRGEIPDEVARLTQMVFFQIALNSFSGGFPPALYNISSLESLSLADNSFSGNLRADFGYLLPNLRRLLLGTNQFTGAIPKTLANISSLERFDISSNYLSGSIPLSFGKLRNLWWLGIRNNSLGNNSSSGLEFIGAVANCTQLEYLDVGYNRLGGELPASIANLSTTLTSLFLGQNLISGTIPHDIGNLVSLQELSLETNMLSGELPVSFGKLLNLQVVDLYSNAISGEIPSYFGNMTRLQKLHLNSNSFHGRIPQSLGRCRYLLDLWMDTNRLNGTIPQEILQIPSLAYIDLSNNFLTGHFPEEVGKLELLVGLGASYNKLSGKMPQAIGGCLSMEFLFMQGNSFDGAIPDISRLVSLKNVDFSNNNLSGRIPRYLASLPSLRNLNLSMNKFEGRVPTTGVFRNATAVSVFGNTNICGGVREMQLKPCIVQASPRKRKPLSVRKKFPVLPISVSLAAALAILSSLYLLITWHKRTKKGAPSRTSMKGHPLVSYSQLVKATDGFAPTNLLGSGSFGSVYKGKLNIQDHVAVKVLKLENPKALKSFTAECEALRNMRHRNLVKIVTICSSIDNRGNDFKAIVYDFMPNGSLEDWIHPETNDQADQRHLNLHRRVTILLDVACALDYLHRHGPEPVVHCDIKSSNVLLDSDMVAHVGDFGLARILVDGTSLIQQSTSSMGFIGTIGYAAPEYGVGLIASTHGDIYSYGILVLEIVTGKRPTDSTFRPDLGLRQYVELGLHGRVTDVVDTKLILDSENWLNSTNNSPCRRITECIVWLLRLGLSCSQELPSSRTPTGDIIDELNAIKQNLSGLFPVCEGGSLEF

Substance	MAP kinase activation (phospho p44/42 bands, ~47 kDa and 40 kDa) (MAP kinases)	EC50 of ROS production in mature rice leaves (dose response curve) [1]	EC50 of ROS production in mature rice leaves (dose response curve) [2]
chitin	increase of two distinct bands	–	–
elf18_(E.coli) (from UniProt P0CE47 1-18) (peptide)	–	0.3 nM	0.3 nM
